Test results reported in CN114409766A (AGRICULTURAL UNIV IN CHINA, dated 2022).

T1: EBV病毒颗粒 (gp350 on EB virus particles) (Epstein-Barr virus, UniProt P03200 1-907)
T1 construct: also called EBV颗粒; UV-EBV病毒颗粒
T1 sequence (looked up): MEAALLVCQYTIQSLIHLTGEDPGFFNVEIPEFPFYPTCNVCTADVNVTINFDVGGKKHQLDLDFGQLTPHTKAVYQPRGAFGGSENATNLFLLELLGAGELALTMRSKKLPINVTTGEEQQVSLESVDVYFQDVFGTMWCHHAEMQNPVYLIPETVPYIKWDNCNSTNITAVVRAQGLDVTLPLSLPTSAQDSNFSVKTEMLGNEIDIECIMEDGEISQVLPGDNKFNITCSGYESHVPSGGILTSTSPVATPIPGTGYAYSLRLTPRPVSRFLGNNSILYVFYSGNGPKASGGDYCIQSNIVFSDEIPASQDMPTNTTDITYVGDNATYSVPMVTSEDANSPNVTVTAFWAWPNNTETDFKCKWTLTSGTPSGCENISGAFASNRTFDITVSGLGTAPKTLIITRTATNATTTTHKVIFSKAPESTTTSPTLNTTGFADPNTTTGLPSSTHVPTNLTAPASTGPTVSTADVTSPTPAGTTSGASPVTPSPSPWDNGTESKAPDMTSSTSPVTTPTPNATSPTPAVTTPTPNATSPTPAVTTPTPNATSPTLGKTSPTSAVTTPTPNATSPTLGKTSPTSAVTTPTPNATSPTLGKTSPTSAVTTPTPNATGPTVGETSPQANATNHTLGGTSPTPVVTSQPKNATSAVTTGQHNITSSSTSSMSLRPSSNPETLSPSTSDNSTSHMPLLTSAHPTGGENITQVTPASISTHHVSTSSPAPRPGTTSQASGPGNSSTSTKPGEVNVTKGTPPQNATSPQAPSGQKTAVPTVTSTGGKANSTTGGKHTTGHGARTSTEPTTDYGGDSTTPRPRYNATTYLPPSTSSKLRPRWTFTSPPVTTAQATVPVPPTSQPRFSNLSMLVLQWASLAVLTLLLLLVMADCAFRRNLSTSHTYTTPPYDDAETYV


Target: T1, EBV病毒颗粒 (gp350 on EB virus particles)
Assay: ELISA, EBV particles coated, titrated binder

Binder	binding result
单克隆抗体R9 (scFv fused to FLAG tag or hFc) (scFv) scFv: QSVKESEGGLFKPTDTLTLTCTVSGSSLRSYGVSWVRQAPGTGLEWIGAIGRSGSAYYASWAKSRSTITRNTNDNTVTLKMTSLTAADTATYFCARAYFGNSIGPFNIWGPGTLVTVSSGGGGSGGGGSGGGGSAIVLTQTPSSVSAPVGGTVTINCQASQSVSNLLAWYQQKPGQPPKLLIYGASNLESGVPSRFRGSGSGTQFTLTISGVKAEDVAAYYCHQHSSFPLTFGAGTKVEIK	binds
单克隆抗体R1 (scFv fused to FLAG tag or hFc) (scFv, also called R1抗体; 单抗R1) scFv: QSVKESEGGLFKPTDTLTLTCTVSGFSLSSNAISWVRQAPGNGLEYIGYISYRGNTYYASWARSRSTITRNTNENTVTLKMTRLTAADTATYFCARIRSYSRANGHADGFDPWGPGTLVTVSSGGGGSGGGGSGGGGSDVVMTQTPSSVSAAVGGTVTINCQASESISNLLAWYQQKPGQPPKLLIYGASNLESGVPSRFRGSGSGTQFTLTISGVKDEDVATYYCQSGRYAAGATFGAGTNVEIK	binds
